# Patent US20110311550A1 (Scripps Research, published 2011)
# B1: MAb AR2A (antibody, V domains shown)
# VH: LEQSGAEMKKPGASLKVSCKTSGYTFDDYGVTWVRQAPGQGLEWMGWISAYSGNTFYARKFQGRVTMTTDPSTRTAYMELRSLRSDDTAVYFCARDRGLAINGVVFPYFGLDVWGQGTTVTVSS
# VL: ELTQSPVSLPVTPGEPASISCRSSQSLLHSNGNHYLDWYLQKPGQSPQLLMYLGSNRASGVPDRFSGSGSGTDFTLKISRVEAEDVGVYYCMQGLQTPWTFGQGTKVEIKR
# notes: also called IgG1 of Fab G
# B2: MAb AR1A (antibody, V domains shown)
# VH: LEQSGAEVKKPGSSVKVSCRASGSPYSSYTITWVRQAPGQGLEWMGGIILMTGKANYAQKFQGRVTITADRATATAYMEMSSLTSDDTAIYYCARDPYVYAGDDVRSLSRWGQGTPVIVSS
# VL: not shown
# notes: also called IgG1 of Fab B2
# B3: MAb AR1B (antibody, V domains shown)
# VH: LESGGGLVQPGGSLRLSCEASGYYFSSFAMSWVRQTPGKGLEWVSSIAGGTLGRTSYRDSVKGRFTISRDNSKNTVFLHMNNLRPEDTAVYYCAKDPLLFAGGPNWFDHWGQGTLVTVSS
# VL: not shown
# notes: also called IgG1 of Fab D1
# Biological target: T1, vaccinia-expressed E1E2 complex, isolate HCV-1 (genotype 1a) (hepatitis C virus, isolate HCV-1, UniProt P26664 192-383; P26664 384-746)
# Test: competition ELISA on HCV-1 E1E2; competitor m30 (7/16B)
row,Binder,% residual binding [%]
1,B1,95
2,B2,86
3,B3,91

# Biological target: H77 E1E2 mutant N540A (HCV isolate H77, UniProt P27958 192-383; P27958 384-746)
# Test: ELISA, alanine mutant E1E2
row,Binder,binding vs wild-type E1E2 [%]
1,B1,30
2,B2,0
3,B3,25

# Biological target: H77 E1E2 mutant G418A (HCV isolate H77, UniProt P27958 192-383; P27958 384-746)
# Test: ELISA, alanine mutant E1E2
row,Binder,binding vs wild-type E1E2 [%]
1,B1,83
2,B2,51
3,B3,143

# Biological target: H77 E1E2 mutant N532A (HCV isolate H77, UniProt P27958 192-383; P27958 384-746)
# Test: ELISA, alanine mutant E1E2
row,Binder,binding vs wild-type E1E2 [%]
1,B1,58
2,B2,82
3,B3,73

# Biological target: H77 E1E2 mutant I414A (HCV isolate H77, UniProt P27958 192-383; P27958 384-746)
# Test: ELISA, alanine mutant E1E2
row,Binder,binding vs wild-type E1E2 [%]
1,B1,180
2,B2,128
3,B3,147

# Biological target: H77 E1E2 mutant W487A (HCV isolate H77, UniProt P27958 192-383; P27958 384-746)
# Test: ELISA, alanine mutant E1E2
row,Binder,binding vs wild-type E1E2 [%]
1,B1,93
2,B2,89
3,B3,70

# Biological target: H77 E1E2 mutant H421A (HCV isolate H77, UniProt P27958 192-383; P27958 384-746)
# Test: ELISA, alanine mutant E1E2
row,Binder,binding vs wild-type E1E2 [%]
1,B1,84
2,B2,167
3,B3,72

# Biological target: H77 E1E2 mutant S424A (HCV isolate H77, UniProt P27958 192-383; P27958 384-746)
# Test: ELISA, alanine mutant E1E2
row,Binder,binding vs wild-type E1E2 [%]
1,B1,91
2,B2,103
3,B3,103

# Biological target: H77 E1E2 mutant W549A (HCV isolate H77, UniProt P27958 192-383; P27958 384-746)
# Test: ELISA, alanine mutant E1E2
row,Binder,binding vs wild-type E1E2 [%]
1,B1,151
2,B2,0
3,B3,0

# Biological target: H77 E1E2 mutant Y485A (HCV isolate H77, UniProt P27958 192-383; P27958 384-746)
# Test: ELISA, alanine mutant E1E2
row,Binder,binding vs wild-type E1E2 [%]
1,B1,67
2,B2,17
3,B3,30

# Biological target: H77 E1E2 mutant T416A (HCV isolate H77, UniProt P27958 192-383; P27958 384-746)
# Test: ELISA, alanine mutant E1E2
row,Binder,binding vs wild-type E1E2 [%]
1,B1,99
2,B2,23
3,B3,99

# Biological target: H77 E1E2 mutant G547A (HCV isolate H77, UniProt P27958 192-383; P27958 384-746)
# Test: ELISA, alanine mutant E1E2
row,Binder,binding vs wild-type E1E2 [%]
1,B1,83
2,B2,34
3,B3,0

# Biological target: H77 E1E2 mutant Q412A (HCV isolate H77, UniProt P27958 192-383; P27958 384-746)
# Test: ELISA, alanine mutant E1E2
row,Binder,binding vs wild-type E1E2 [%]
1,B1,95
2,B2,145
3,B3,48

# Biological target: H77 E1E2 mutant D535A (HCV isolate H77, UniProt P27958 192-383; P27958 384-746)
# Test: ELISA, alanine mutant E1E2
row,Binder,binding vs wild-type E1E2 [%]
1,B1,133
2,B2,235
3,B3,121

# Biological target: H77 E1E2 mutant G523A (HCV isolate H77, UniProt P27958 192-383; P27958 384-746)
# Test: ELISA, alanine mutant E1E2
row,Binder,binding vs wild-type E1E2 [%]
1,B1,129
2,B2,112
3,B3,33

# Biological target: H77 E1E2 mutant P484A (HCV isolate H77, UniProt P27958 192-383; P27958 384-746)
# Test: ELISA, alanine mutant E1E2
row,Binder,binding vs wild-type E1E2 [%]
1,B1,77
2,B2,38
3,B3,45

# Biological target: H77 E1E2 mutant D533A (HCV isolate H77, UniProt P27958 192-383; P27958 384-746)
# Test: ELISA, alanine mutant E1E2
row,Binder,binding vs wild-type E1E2 [%]
1,B1,60
2,B2,101
3,B3,90

# Biological target: H77 E1E2 mutant G530A (HCV isolate H77, UniProt P27958 192-383; P27958 384-746)
# Test: ELISA, alanine mutant E1E2
row,Binder,binding vs wild-type E1E2 [%]
1,B1,53
2,B2,227
3,B3,50

# Biological target: H77 E1E2 mutant T534A (HCV isolate H77, UniProt P27958 192-383; P27958 384-746)
# Test: ELISA, alanine mutant E1E2
row,Binder,binding vs wild-type E1E2 [%]
1,B1,84
2,B2,100
3,B3,49

# Biological target: H77 E1E2 mutant Y527A (HCV isolate H77, UniProt P27958 192-383; P27958 384-746)
# Test: ELISA, alanine mutant E1E2
row,Binder,binding vs wild-type E1E2 [%]
1,B1,149
2,B2,61
3,B3,83

# Biological target: T1, vaccinia-expressed E1E2 complex, …
# Test: competition ELISA on HCV-1 E1E2; competitor m3 (AR2A)
row,Binder,% residual binding [%]
1,B1,15
2,B2,100
3,B3,89

# Biological target: T1, vaccinia-expressed E1E2 complex, …
# Test: competition ELISA on HCV-1 E1E2; competitor m21 (CBH-5)
row,Binder,% residual binding [%]
1,B1,91
2,B2,54
3,B3,89

# Biological target: T1, vaccinia-expressed E1E2 complex, …
# Test: competition ELISA on HCV-1 E1E2; competitor m6 (AR3C)
row,Binder,% residual binding [%]
1,B1,86
2,B2,37
3,B3,66

# Biological target: E1E2 complex of HCV isolate H77 (genotype 1a), wild type (HCV isolate H77, UniProt P27958 192-383; P27958 384-746)
# Test: competition ELISA on H77 E1E2; competitor m38 (Fab N2)
row,Binder,% residual binding [%]
1,B1,86
2,B2,82
3,B3,100

# Biological target: T1, vaccinia-expressed E1E2 complex, …
# Test: competition ELISA on HCV-1 E1E2; competitor m22 (CBH-7)
row,Binder,% residual binding [%]
1,B1,17
2,B2,16
3,B3,20

# Biological target: T1, vaccinia-expressed E1E2 complex, …
# Test: competition ELISA on HCV-1 E1E2; competitor m34 (6/53)
row,Binder,% residual binding [%]
1,B1,92
2,B2,89
3,B3,92
